From PMC7948726

Biological target: 14-3-3β (UniProt P31946)
Experiment: anti-FLAG co-IP, anti-HA blot
Conditions: reference: FLAG-DYRK1A wild type; sites S529

## DYRK1A (from UniProt Q63470) FLAG-DYRK1A-S529A
  binding against the reference: weaker
